B1: phage-displayed heptapeptide of SEQ ID NO: 137 (without the added alanines), Ph.D.-7 library (peptide)
peptide: KKMKRRK
notes: Residues 2-8 follow from 'after adding alanine on both sides'
B2: phage-displayed heptapeptide of SEQ ID NO: 138 (without the added alanines), Ph.D.-7 library (peptide)
peptide: ITFNAQY
B3: phage-displayed heptapeptide of SEQ ID NO: 139 (without the added alanines), Ph.D.-7 library (peptide)
peptide: SASAPVS
B4: oligopeptide … (aa 75-98) [SEQ ID NO: 106] (peptide)
peptide: EDPPGEEDLPGEEDLPGEEDLPEV
notes: Synthetic; cysteine added onto the C-end; C-terminal acid

Assay [1] concerns the target B4. Briefly: phage display panning, 5 cycles, on immobilized peptide SEQ ID NO: 106.
In assay [2] the target is T1, monoclonal antibody M75 (MAb M75), secreted from the hybridoma VU-M75, ATCC HB 11128.
T1 construct: also called MAb 75
Briefly: competition ELISA: peptide in solution against immobilized GST-MN for M75.

On to B1, for which the binding result in assay [1] is reported as “binds”.
Still for that read-out and setting: then B2, with “binds”; and B3, with “binds”.
For orientation: IC50 means the concentration needed to halve the response being measured. High values mean lower potency, low ones higher potency. In turn, B4 gave an IC50 in assay [2] of 1 ng/mL.

The values are drawn from patent publication EP1832653A1 (INSTITUTE OF VIROLOGY, dated 2007).
